Patent US8822661B2, “Xylose reductase mutants and uses thereof” (The Board of Trustees of the University of Illinois, priority 2007, dated 2014)
Like-named read-outs stand apart in the source and are kept apart here.

Legend:
[1] = cited from earlier work
[2] = Kinetic characterization of purified mutant NcXRs, substrate D-xylose (NADPH oxidation at A340); assay type: biochemical, Neurospora crassa
Protocol: (§1) NADPH concentration was kept >100 μM at all times, making it the non-rate-limiting reagent assuming no significant change in KM for mutants from the 1.8 μM for wild-type NcXR toward NADPH. All reactions were performed at pH 6.3 and 25° C., allowing for easy comparison to published data on wild-type NcXR. Initial reaction rate at each substrate concentration was measured by monitoring the rate of change at A340 upon addition of purified enzyme to the substrate mix. All readings were taken in at least two independent two data sets to minimize random error and eliminate experimental artifacts. […] Maximum reaction rates (kcat) were calculated based on molecular weight of dimeric NcXR.
(§2) Michaelis-Meten kinetic constants (KM, kcat) were determined. All reactions were performed at 25° C. in 50 mM MOPS buffer pH 6.3. NADPH concentration was kept >100 μM, usually between 100-400 μM and substrate concentrations were between 5 and 1500 mM for xylose and between 5 and 2000 mM for arabinose. Purified enzymes were kept on ice at all times to minimize thermal inactivation. Calculations were based on at least two independent datasets of two readings each, and were performed by least-squares fit method in Microcal Origin 5.0 (OriginLab Corporation, Northampton, Mass.). Substrate solutions were maintained at 25° C. in ThermoNESLAB RTE7 refrigerated water bath (Thermo Electron Corporation, Waltham, Mass.). A water-circulating jacketed the cuvette holder in Varian Cary 100 Bio UV-visible spectrophotometer (Varian, Palo Alto, Calif.). 500 μL substrate solution was added to a quartz cuvette with 10 mm path-length and mixed with 0.3-2 μg purified enzyme. Reaction rate was monitored as decrease in absorbance at 340 nm, corresponding to oxidation of NADPH (c=6220 M^−1 cm^−1) to NADP. Initial reaction rate was measured as the slope between 0.05 min and 0.25 min. Specific activity calculated for various substrate concentrations from initial reaction rates was used to calculate Michaelis-Menten constants.

[3] = Kinetic characterization of purified mutant NcXRs, substrate L-arabinose (NADPH oxidation at A340); assay type: biochemical, Neurospora crassa
Protocol: as §1, §2

[4] = XR of the named organism, cited from earlier work
[5] = XR of the named organism, read-out: KM, NADPH

B1: P. siptitus: xylose reductase (XR) from P. siptitus as printed (protein, UniProt P31867 1-318, looked up)
NAD(P)H-dependent D-xylose …: MPSIKLNSGYDMPAVGFGCWKVDVDTCSEQIYRAIKTGYRLFDGAEDYANEKLVGAGVKKAIDEGIVKREDLFLTSKLWNNYHHPDNVEKALNRTLSDLQVDYVDLFLIHFPVTFKFVPLEEKYPPGFYCGKGDNFDYEDVPILETWKALEKLVKAGKIRSIGVSNFPGALLLDLLRGATIKPSVLQVEHHPYLQQPRLIEFAQSRGIAVTAYSSFGPQSFVELNQGRALNTSPLFENETIKAIAAKHGKSPAQVLLRWSSQRGIAIIPKSNTVPRLLENKDVNSFDLDEQDFADIAKLDINLRFNDPWDWDKIPIFV
[1]; [5]
  Km: 9 µM

B2: C. tenuis: xylose reductase (XR) from C. tenuis (protein, UniProt O74237 1-322, looked up)
NAD(P)H-dependent D-xylose …: MSASIPDIKLSSGHLMPSIGFGCWKLANATAGEQVYQAIKAGYRLFDGAEDYGNEKEVGDGVKRAIDEGLVKREEIFLTSKLWNNYHDPKNVETALNKTLADLKVDYVDLFLIHFPIAFKFVPIEEKYPPGFYCGDGNNFVYEDVPILETWKALEKLVAAGKIKSIGVSNFPGALLLDLLRGATIKPAVLQVEHHPYLQQPKLIEFAQKAGVTITAYSSFGPQSFVEMNQGRALNTPTLFAHDTIKAIAAKYNKTPAEVLLRWAAQRGIAVIPKSNLPERLVQNRSFNTFDLTKEDFEEIAKLDIGLRFNDPWDWDNIPIFV
[1]; [5]
  Km: 4.8 µM

B3: S. cerevisiae: xylose reductase (XR) from S. cerevisiae (protein, UniProt P38715 2-327, looked up)
NADPH-dependent aldose …: SSLVTLNNGLKMPLVGLGCWKIDKKVCANQIYEAIKLGYRLFDGACDYGNEKEVGEGIRKAISEGLVSRKDIFVVSKLWNNFHHPDHVKLALKKTLSDMGLDYLDLYYIHFPIAFKYVPFEEKYPPGFYTGADDEKKGHITEAHVPIIDTYRALEECVDEGLIKSIGVSNFQGSLIQDLLRGCRIKPVALQIEHHPYLTQEHLVEFCKLHDIQVVAYSSFGPQSFIEMDLQLAKTTPTLFENDVIKKVSQNHPGSTTSQVLLRWATQRGIAVIPKSSKKERLLGNLEIEKKFTLTEQELKDISALNANIRFNDPWTWLDGKFPTFA
[1]; [5]
  Km: 7.6 µM

B4: wt: wild-type xylose reductase from Neurospora crassa, SEQ ID NO: 1 (NCU 08384.1) (protein, listed as Neurospora crassa)
chain: MVPAIKLNSGFDMPQVGFGLWKVDGSIASDVVYNAIKAGYRLFDGACDYGNEVECGQGVARAIKEGIVKREELFIVSKLWNTFHDGDRVEPIVRKQLADWGLEYFDLYLIHFPVALEYVDPSVRYPPGWHFDGKSEIRPSKATIQETWTAMESLVEKGLSKSIGVSNFQAQLLYDLLRYAKVRPATLQIEHHPYLVQQNLLNLAKAEGIAVTAYSSFGPASFREFNMEHAQKLQPLLEDPTIKAIGDKYNKDPAQVLLRWATQRGLAIIPKSSREATMKSNLNSLDFDLSEEDIKTISGFDRGIRFNQPTNYFSAENLWIFG
[2]
  xylose over arabinose specificity, in words: higher than twofold
[2]; ratio of catalytic efficiency between xylose and arabinose
  Selectivity (xylose-to-arabinose): 2.4
[2]; substrate D-Xylose, relative to wt with D-xylose
  Catalytic Efficiency (relative): 100%
[3]; pH 6.3, 25° C., NADPH >100 μM
  Km: 40000 µM
[3]; pH 6.3, 25° C., based on dimeric NcXR
  kcat: 30 s⁻¹
[3]; relative to wt with D-xylose
  Catalytic Efficiency (relative): 41%
[4]
  kcat: 60 s⁻¹
[4]; read-out: KM, xylose
  Km: 34000 µM
[1]; [5]
  Km: 1.8 µM
[1]; wild-type NcXR, published value, read-out: KM toward NADPH
  Km: 1.8 µM
